Results as given in patent US20230009161A1.

Target: recombinant human ErbB2/HER2 Fc chimera protein (R&D Systems, cat no. 1129-ER) (human) (UniProt P04626)

In the case of “IgG1^HER2 (monoclonal anti-HER2 IgG1; Trastuzumab) (antibody)”, the Kd is reported as 720 pM.
